Results: patent publication US20240043489A1, “Cytokine Prodrugs Comprising a Cleavable Linker” (Trutino Biosciences Inc., priority 2020, published 2024)
Several values for one entry are separate records, joined by “and”; a condition that tells them apart may be missing. Identical values can stand only once. Like-named read-outs stand apart in the source and are kept apart here. Each block holds one molecule with its values, some of them ahead of it.

What was measured:
[1] = system: heparin; settings: Note 1, cited from earlier work
[2] = molecular target: Collagen type I (Homo sapiens, UniProt P02452+P08123); settings: binds to Collagen type I; Note 1 of Table 2; cited from earlier work
Chain of Collagen type I (P02452 162-1218 limits assumed): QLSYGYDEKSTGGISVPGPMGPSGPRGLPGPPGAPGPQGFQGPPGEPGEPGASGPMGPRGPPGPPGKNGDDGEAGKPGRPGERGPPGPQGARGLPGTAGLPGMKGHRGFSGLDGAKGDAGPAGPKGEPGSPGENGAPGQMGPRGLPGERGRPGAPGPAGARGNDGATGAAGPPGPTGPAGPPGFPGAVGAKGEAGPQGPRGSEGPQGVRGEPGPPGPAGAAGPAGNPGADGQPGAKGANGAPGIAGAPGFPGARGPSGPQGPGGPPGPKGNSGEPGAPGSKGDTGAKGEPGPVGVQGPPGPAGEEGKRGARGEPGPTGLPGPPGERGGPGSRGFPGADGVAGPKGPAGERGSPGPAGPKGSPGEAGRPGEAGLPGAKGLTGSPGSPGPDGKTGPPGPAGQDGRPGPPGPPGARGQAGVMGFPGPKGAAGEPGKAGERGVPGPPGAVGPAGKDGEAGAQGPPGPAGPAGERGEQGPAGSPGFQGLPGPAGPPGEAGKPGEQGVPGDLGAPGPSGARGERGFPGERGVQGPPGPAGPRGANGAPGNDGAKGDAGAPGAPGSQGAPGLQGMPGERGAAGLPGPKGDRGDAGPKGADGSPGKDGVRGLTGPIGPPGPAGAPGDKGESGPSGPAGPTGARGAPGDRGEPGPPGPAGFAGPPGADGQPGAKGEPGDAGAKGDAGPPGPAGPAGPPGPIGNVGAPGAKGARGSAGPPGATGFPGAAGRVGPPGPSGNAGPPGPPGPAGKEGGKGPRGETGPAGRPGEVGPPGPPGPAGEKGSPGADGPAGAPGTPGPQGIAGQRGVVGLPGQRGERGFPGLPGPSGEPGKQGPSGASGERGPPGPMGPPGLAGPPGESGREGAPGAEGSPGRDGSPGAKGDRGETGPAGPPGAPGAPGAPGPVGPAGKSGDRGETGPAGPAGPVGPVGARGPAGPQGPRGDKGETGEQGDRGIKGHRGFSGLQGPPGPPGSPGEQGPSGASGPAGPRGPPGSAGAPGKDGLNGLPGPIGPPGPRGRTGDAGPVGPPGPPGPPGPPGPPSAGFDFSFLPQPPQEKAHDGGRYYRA
Chain of Collagen type I (P08123 80-1119 limits assumed): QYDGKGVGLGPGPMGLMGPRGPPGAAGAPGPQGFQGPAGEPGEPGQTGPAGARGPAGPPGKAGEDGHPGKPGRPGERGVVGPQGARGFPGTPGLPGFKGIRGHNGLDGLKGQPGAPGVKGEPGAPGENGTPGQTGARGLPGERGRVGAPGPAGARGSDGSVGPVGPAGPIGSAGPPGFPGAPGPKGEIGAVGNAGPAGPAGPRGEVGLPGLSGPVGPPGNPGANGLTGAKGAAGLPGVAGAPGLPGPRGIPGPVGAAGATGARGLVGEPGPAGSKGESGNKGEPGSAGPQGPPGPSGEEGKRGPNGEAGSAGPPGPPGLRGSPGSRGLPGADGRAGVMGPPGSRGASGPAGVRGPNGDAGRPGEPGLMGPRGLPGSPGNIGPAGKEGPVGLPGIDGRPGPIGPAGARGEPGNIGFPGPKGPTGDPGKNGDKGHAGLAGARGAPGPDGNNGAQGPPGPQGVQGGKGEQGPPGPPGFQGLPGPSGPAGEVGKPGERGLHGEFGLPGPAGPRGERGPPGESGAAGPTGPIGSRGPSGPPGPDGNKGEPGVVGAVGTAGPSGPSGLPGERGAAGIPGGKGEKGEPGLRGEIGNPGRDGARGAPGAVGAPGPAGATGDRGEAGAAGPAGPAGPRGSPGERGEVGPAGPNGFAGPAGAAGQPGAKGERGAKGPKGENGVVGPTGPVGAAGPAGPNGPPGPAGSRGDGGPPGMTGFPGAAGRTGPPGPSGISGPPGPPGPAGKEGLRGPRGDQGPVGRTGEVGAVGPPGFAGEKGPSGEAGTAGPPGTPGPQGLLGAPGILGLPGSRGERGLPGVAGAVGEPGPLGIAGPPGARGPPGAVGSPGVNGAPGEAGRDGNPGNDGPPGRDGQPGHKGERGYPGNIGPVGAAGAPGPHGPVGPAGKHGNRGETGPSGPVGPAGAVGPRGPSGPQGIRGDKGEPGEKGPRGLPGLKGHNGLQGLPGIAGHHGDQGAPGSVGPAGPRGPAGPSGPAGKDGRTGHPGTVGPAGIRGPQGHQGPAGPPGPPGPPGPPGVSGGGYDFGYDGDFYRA

[3] = system: B16F10 melanoma; assay: In vivo efficacy of retention linker IL-2 drugs in B16F10 syngeneic model (Example 17); design: species or system mice
Protocol: (§1) In a first efficacy study, C57BL/6 mice were subcutaneously inoculated with B16F10 melanoma cells and when the average tumor volume reached on average 70-90 mm^3, animals were randomized into 5 groups based on tumor volumes (n=6 mice per treatment group). Mice were dosed intravenously every 3 days (Q3D) for a total of 5 doses according to following design:
as §1, with “second” for “first”, “study in the same model,” for “study,”
On Day 20, mice received an additional dose of drug, animals were sacrificed 24 hrs later and tissues and blood (processed to serum) were collected and stored at −80C for further testing. […] This is most likely due to the higher levels of both circulating drugs in serum and resident drug in TME, which can exert prolonged anti-tumor activity even after an extended dosing holiday.

[4] = system: HEK-Blue™ IL-2 cells; assay: HEK-Blue IL2 reporter assay (SEAP, OD630); type: cell-based; settings: Table 5C
Protocol: Recombinant MMP9 and/or MMP2 (R&D Systems) was first activated with p-aminophenylmercuric acetate and this activated protease or equivalent amount of activating solution without the protease was used to digest or mock digest the fusion protein for 1 hr, 2 hr, 4 hr and overnight (18-22 hr) at 37 C. Cleavage assays are set up in TCNB buffer: 50 mM Tris, 10 mM CaCl2), 150 mM NaCl, 0.05% Brij-35 (w/v), pH 7.5. Digested protein was aliquoted and stored at −80° C. prior to testing. Aliquots of digests were subsequently analyzed by SDS-PAGE followed by Western blotting to evaluate the extent of cleavage. Digests were also assessed in functional assays such as CTLL-2 proliferation and HEK-Blue Interleukin reporter assays. As shown in FIGS. 2A-E, essentially complete cleavage by MMP9 protease of the fusion proteins with functional site is seen after overnight incubation. In contrast, proteins containing a scrambled MMP cleavage site are not cut (FIG. 2E). HEK-Blue™ IL-2 cells are specifically designed to monitor the activation of the JAK-STAT pathway induced by IL-2. Indeed, stimulation with human or murine IL-2 triggers the JAK/STAT5 pathway and induces secreted embryonic alkaline phosphatase (SEAP) production. SEAP can be readily monitored when using QUANTI-Blue™, a SEAP detection medium. These cells respond to human and murine IL-2. For the HEK Blue assay, untreated and digested samples are titrated and added to 50 000 HEK Blue cells per well in 200 ul medium in a 96-well plate and incubated at 37C in 5% CO2 for 20-24 hr. The following day, levels of SEAP are measured by adding 20 uL of cell supernatant to QuantiBlue reagent, followed by 1-3 h incubation at 37C and reading absorbance at 630 nm. FIGS. 3C-J, 3Q-Y and Table 5B-5C show results obtained from IL2 fusion proteins tested in HEK Blue IL2 assay.

[5] = molecular target: fibronectin (Homo sapiens, UniProt P02751); assay: IL-2 fusion protein plate binding assay to fibronectin
Chain of fibronectin (P02751 32-2477, species assumed): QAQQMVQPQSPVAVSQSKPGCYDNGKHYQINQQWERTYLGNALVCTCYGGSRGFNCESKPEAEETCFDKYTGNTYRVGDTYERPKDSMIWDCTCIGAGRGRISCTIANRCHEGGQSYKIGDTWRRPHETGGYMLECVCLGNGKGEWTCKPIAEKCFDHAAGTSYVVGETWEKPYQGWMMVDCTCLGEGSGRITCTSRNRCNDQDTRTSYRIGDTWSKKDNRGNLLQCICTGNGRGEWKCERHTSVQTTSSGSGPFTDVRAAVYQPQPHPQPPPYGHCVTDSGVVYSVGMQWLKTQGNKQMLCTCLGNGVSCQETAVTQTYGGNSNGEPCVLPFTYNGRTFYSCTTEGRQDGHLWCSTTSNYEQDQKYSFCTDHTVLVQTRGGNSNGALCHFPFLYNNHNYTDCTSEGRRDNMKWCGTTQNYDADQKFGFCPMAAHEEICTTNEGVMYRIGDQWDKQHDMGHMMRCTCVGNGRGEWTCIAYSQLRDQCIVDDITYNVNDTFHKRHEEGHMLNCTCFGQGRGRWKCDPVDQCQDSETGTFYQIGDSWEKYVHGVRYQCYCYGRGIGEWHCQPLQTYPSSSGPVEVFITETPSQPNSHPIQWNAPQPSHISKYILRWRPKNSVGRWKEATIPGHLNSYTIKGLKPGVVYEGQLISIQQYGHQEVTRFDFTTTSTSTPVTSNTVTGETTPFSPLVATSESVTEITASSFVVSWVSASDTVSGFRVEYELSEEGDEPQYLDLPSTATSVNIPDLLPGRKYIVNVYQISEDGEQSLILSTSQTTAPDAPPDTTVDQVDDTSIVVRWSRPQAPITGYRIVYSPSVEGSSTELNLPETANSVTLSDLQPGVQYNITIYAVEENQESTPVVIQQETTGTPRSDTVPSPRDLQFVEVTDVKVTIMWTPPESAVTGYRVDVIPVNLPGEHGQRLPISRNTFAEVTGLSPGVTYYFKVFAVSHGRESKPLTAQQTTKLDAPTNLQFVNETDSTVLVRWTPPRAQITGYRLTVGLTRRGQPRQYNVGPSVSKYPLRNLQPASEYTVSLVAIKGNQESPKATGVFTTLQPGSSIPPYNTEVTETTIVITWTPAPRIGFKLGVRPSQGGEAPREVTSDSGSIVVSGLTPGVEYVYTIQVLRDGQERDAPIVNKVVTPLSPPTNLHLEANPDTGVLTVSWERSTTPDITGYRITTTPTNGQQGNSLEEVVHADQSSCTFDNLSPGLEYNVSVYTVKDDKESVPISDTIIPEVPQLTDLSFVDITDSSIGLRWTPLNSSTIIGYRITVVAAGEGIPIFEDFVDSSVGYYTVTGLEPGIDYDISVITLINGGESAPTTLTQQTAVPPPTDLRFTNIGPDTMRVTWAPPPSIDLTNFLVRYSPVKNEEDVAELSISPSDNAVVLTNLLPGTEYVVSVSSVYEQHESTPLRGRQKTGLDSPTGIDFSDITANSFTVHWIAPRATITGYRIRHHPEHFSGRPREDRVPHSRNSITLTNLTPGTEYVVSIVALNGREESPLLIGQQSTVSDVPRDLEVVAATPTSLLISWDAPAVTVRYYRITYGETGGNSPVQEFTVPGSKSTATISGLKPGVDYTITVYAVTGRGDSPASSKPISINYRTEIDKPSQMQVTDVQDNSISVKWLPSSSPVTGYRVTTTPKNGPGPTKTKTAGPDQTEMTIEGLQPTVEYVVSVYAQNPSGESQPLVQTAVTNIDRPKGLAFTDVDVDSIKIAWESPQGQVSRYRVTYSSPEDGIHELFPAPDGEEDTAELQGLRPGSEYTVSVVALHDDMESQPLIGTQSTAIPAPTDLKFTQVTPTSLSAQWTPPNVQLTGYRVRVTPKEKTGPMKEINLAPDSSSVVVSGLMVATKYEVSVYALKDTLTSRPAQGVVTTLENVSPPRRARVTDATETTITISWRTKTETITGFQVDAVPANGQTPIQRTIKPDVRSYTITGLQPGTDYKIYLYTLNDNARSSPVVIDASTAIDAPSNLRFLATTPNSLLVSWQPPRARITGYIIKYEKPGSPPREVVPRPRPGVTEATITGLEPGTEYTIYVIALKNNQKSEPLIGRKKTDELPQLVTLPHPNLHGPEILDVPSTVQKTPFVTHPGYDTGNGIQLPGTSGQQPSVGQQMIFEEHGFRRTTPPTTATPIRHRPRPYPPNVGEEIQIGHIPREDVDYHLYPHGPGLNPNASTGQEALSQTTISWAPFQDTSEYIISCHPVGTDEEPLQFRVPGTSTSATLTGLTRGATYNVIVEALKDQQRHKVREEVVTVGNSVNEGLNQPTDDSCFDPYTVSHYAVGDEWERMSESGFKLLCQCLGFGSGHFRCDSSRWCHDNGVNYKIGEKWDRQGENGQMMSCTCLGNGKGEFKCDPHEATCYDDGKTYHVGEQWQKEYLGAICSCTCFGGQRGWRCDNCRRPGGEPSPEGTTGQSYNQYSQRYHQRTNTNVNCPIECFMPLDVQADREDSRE
Protocol: A similar plate-based assay was developed to interrogate binding of IL-2 fusion variants to fibronectin. 96-well plates were coated with 4 ug/mL of fibronectin (Sigma) or control BSA for 18-22 h at room temperature on shaker (350 rpm). After washing, wells are blocked with protein-free blocking buffer (Pierce) for 90 min, then fusion proteins are titrated in blocking buffer-0.1% Tween 20 pH 7.5 and/or pH 6 and added for 1 hr at room temperature with shaking. After washing, an anti-mouse IL-2 biotin-labelled detection antibody (JES6-5H4, ThermoFisher) is added and binding is detected using Ultra Streptavidin HRP (ThermoFisher). The plate was developed by adding the chromogenic tetramethylbenzidine substrate (Ultra TMB, ThermoFisher). The reaction is stopped by addition of 0.5M H2SO4 and the absorbance is read at 450-650 nm.

[6] = Full-length drug levels in serum by ELISA; type: in vivo, mice; settings: Construct Y 20 mg/kg Day 21 (8 days after last IV) vs Construct B 20 mg/kg Day 17 (4 days after)
Protocol: We developed an ELISA assay to detect and quantify fusion proteins comprising IL-2 and IL-2Rα moieties. Wells of a 96-well plate are coated overnight with 100 uL of a rat anti-mouse IL-2 monoclonal antibody (JES6-1A12; ThermoFisher) at […] in PBS. After washing, wells are blocked with TBS/0.05% Tween 20/1% BSA, then fusion proteins and/or unknown biological samples are added for 1 hr at room temperature. After washing, an anti-mouse IL-2Rα biotin-labelled detection antibody (BAF2438, R&D systems) is added and binding is detected using Ultra Strepavidin HRP (ThermoFisher). The ELISA plate was developed by adding the chromogenic tetramethylbenzidine substrate (Ultra TMB, ThermoFisher). The reaction is stopped by addition of 0.5M H2SO4 and the absorbance is read at 450-650 nm.
Additional serum samples collected at Day 17 (Construct B 20 mg/kg) and Day 21 (Construct Y 20 mg/kg), 4 days and 8 days respectively after the last IV injection, were assayed for full-length IL-2 fusion drug.

[7] = system: heparin; assay: IL-2 fusion protein plate binding assay to Heparin-BSA conjugate; settings: pH 6 vs pH 7.5, plate assay
Protocol: 96-well plates were coated with 25 ug/mL of Heparin-BSA conjugate (provided by Dr. Mueller, Boerhinger Ingelheim) or control BSA for 18-22 h at room temperature on shaker (350 rpm). After washing, wells are blocked with PBS-0.05% Tween 20/1% BSA for 90 min, then fusion proteins are titrated in 1% BSA/PBS-0.05% Tween 20 pH 7.5 and/or pH 6 and added for 2 hr at room temperature with shaking. After washing, an anti-mouse IL-2 biotin-labelled detection antibody (JES6-5H4, ThermoFisher) is added and binding is detected using Ultra Strepavidin HIRP (ThermoFisher). The plate was developed by adding the chromogenic tetramethylbenzidine substrate (Ultra TMB, ThermoFisher). The reaction is stopped by addition of 0.5M H2SO4 and the absorbance is read at 450-650 nm.

[8] = cleaved with MMP9, read-out: +MMP EC50

Molecule: 645 (TTEPSEEHNHHK) [Construct 645]
affinity of binding to heparin at low pH [1]: binds to heparin at low pH (lower affinity)

Molecule: 650 (KKRPPTWRHNV) [Construct 650]
binding to heparin, pH dependence [1]: binds to heparin at low pH

Molecule: 194 (TKKTLRT) [Construct 194]
Kd [2]: ≤ 100000 nM

Molecule: 649 (GGKVEHRVKKRPPTWRHNVRAKYT) [Construct 649]
binding to heparin, pH dependence [1]: binds to heparin at low pH

Molecule: 196 (WREPSFCALS) [Construct 196]
Kd [2]: 100000 nM

Molecule: 648 (KVEHRVKKRPPTWRHNVRAKYT) [Construct 648]
binding to heparin, pH dependence [1]: binds to heparin at low pH

Molecule: 197 (HVWMQAPGGGK) [Construct 197]
Kd [2]: 61000 nM

Molecule: 195 (CPKESCNLFVLKD) [Construct 195]
Kd [2]: 681 nM

Molecule: 646 (TTEPSEEHNHHKHHDK) [Construct 646]
affinity of binding to heparin at low pH [1]: binds to heparin at low pH (lower affinity)

Molecule: 643 (TTEPSEEHNHHK) [Construct 643]
affinity of binding to heparin at low pH [1]: binds to heparin at low pH (low affinity)

Molecule: 647 (HKGQHR) [Construct 647]
affinity of binding to heparin at low pH [1]: binds to heparin at low pH (lower affinity)

Molecule: 193 (WREPSFCALS) [Construct 193]
Kd [2]: 100000 nM

Molecule: 189 (RRANAALKAGELYKSILYGC) [Construct 189]
Kd [2]: 860 nM

Molecule: 191 (MIVIELGTNPLKSSGIENGAFQGMKK) [Construct 191]
Kd [2]: 394 nM

Molecule: 644 (KHAHL) [Construct 644]
affinity of binding to heparin at low pH [1]: binds to heparin at low pH (lower affinity)

Molecule: 192 (LRELHLNNN) [Construct 192]
Kd [2]: 170 nM

Molecule: 642 (KHAHLKKQVSDHIAVY) [Construct 642]
affinity of binding to heparin at low pH [1]: binds to heparin at low pH (high affinity)

fibronectin binding at pH 7.5 ([5]; pH 7.5 (neutral)): no binding is observed
B1: Construct EE: SEQ ID NO 815: m IL2-SGG-GGWSHW-MMPcs1-2x(G4S)-mIL2Ra(1-215)-mu IgG1 Fc (protein)
chain: APTSSSTSSSTAEAQQQQQQQQQQQQHLEQLLMDLQELLSRMENYRNLKLPRMLTFKFYLPKQATELKDLQCLEDELGPLRHVLDLTQSKSFQLEDAENFISNIRVTVVKLKGSDNTFECQFDDESATVVDFLRRWIAFCQSIISTSPQSGGGGWSHWGPLGVRGGGGGSGGGGSELCLYDPPEVPNATFKALSYKNGTILNCECKRGFRRLKELVYMRCLGNSWSSNCQCTSNSHDKSRKQVTAQLEHQKEQQTTTDMQKPTQSMHQENLTGHCREPPPWKHEDSKRIYHFVEGQSVHYECIPGYKALQRGPAISICKMKCGKTGWTQPQLTCVDEREHHRFLASEESQGSRNSSPESETSCPITTTDFPQPTETTAMTETFVLTMEYKGCKPCICTVPEVSSVFIFPPKPKDVLTITLTPKVTCVVVDISKDDPEVQFSWFVDDVEVHTAQTQPREEQFNSTFRSVSELPIMHQDWLNGKEFKCRVNSAAFPAPIEKTISKTKGRPKAPQVYTIPPPKEQMAKDKVSLTCMITDFFPEDITVEWQWNGQPAENYKNTQPIMDTDGSYFVYSKLNVQKSNWEAGNTFTCSVLHEGLHNHHTEKSLSHSPGK
TGI (%) D 15 ([3]; 10 mg/kg IV Q3D, 5 doses): 39.32% | TGI (%) D 20 ([3]; 10 mg/kg, 7 days following the fifth dose): 37.61% | EC50 [4, 8]: 0.0066 nM | EC50 ([4]; uncleaved, read-out: −MMP EC50): 1.18 nM | fibronectin binding at acidic pH ([5]; pH 6): preferentially binds fibronectin at acidic pH

B2: Construct Y: SEQ ID NO 809: m IL2(C140S)-VRIQRKKEKMKET-MMPcs1-2x(G4S)-mIL2Ra (1-215)-mu IgG1 Fc (protein)
chain: APTSSSTSSSTAEAQQQQQQQQQQQQHLEQLLMDLQELLSRMENYRNLKLPRMLTFKFYLPKQATELKDLQCLEDELGPLRHVLDLTQSKSFQLEDAENFISNIRVTVVKLKGSDNTFECQFDDESATVVDFLRRWIAFSQSIISTSPQVRIQRKKEKMKETGPLGVRGGGGGSGGGGSELCLYDPPEVPNATFKALSYKNGTILNCECKRGFRRLKELVYMRCLGNSWSSNCQCTSNSHDKSRKQVTAQLEHQKEQQTTTDMQKPTQSMHQENLTGHCREPPPWKHEDSKRIYHFVEGQSVHYECIPGYKALQRGPAISICKMKCGKTGWTQPQLTCVDEREHHRFLASEESQGSRNSSPESETSCPITTTDFPQPTETTAMTETFVLTMEYKIEGRMDGCKPCICTVPEVSSVFIFPPKPKDVLTITLTPKVTCVVVDISKDDPEVQFSWFVDDVEVHTAQTQPREEQFNSTFRSVSELPIMHQDWLNGKEFKCRVNSAAFPAPIEKTISKTKGRPKAPQVYTIPPPKEQMAKDKVSLTCMITDFFPEDITVEWQWNGQPAENYKNTQPIMDTDGSYFVYSKLNVQKSNWEAGNTFTCSVLHEGLHNHHTEKSLSHSPGK
drug levels in circulation relative to Construct B [6]: more than 10 fold | heparin binding (qualitative) [7]: bind heparin in dose-dependent manner and with higher affinity than Construct B | TGI (%) D 13 ([3]; 20 mg/kg IV Q3D, 5 doses): 77% and 76.59% | EC50 [4, 8]: 0.0109 nM | EC50 ([4]; uncleaved, read-out: −MMP EC50): 1.23 nM

B3: Construct AA: SEQ ID NO 811: m IL2-SGG-FHRRIKA-MMPcs1-2x(G4S)-mIL2Ra(1-215)-mu IgG1 Fc (protein)
chain: APTSSSTSSSTAEAQQQQQQQQQQQQHLEQLLMDLQELLSRMENYRNLKLPRMLTFKFYLPKQATELKDLQCLEDELGPLRHVLDLTQSKSFQLEDAENFISNIRVTVVKLKGSDNTFECQFDDESATVVDFLRRWIAFCQSIISTSPQSGGFHRRIKAGPLGVRGGGGGSGGGGSELCLYDPPEVPNATFKALSYKNGTILNCECKRGFRRLKELVYMRCLGNSWSSNCQCTSNSHDKSRKQVTAQLEHQKEQQTTTDMQKPTQSMHQENLTGHCREPPPWKHEDSKRIYHFVEGQSVHYECIPGYKALQRGPAISICKMKCGKTGWTQPQLTCVDEREHHRFLASEESQGSRNSSPESETSCPITTTDFPQPTETTAMTETFVLTMEYKGCKPCICTVPEVSSVFIFPPKPKDVLTITLTPKVTCVVVDISKDDPEVQFSWFVDDVEVHTAQTQPREEQFNSTFRSVSELPIMHQDWLNGKEFKCRVNSAAFPAPIEKTISKTKGRPKAPQVYTIPPPKEQMAKDKVSLTCMITDFFPEDITVEWQWNGQPAENYKNTQPIMDTDGSYFVYSKLNVQKSNWEAGNTFTCSVLHEGLHNHHTEKSLSHSPGK
EC50 [4, 8]: 0.0109 nM | EC50 ([4]; uncleaved, read-out: −MMP EC50): 0.442 nM
